Experimental data published in patent publication US20210062171A1, “NOVEL SIALIDASES AND USES THEREOF” (The Regents of the University of California, priority 2019, published 2021).
Entries after “also recorded” stand apart in the source; their conditions may differ.

Assays:
Assay type in all cases: biochemical
[1] = In vitro sialidase activity assay on mixed WT and Cmah−/− mouse serum (DMB derivatization, HPLC); settings: purified enzyme 0.5-10 μg; pH 6.5, 7.0 and 8.0; 1 hour at 37° C.
Description: Bin13 sialidases were tested for Neu5Gc release. Each of the five sialidases genes in bin13 were PCR amplified (FIG. 12) and heterologously expressed in vitro, purified, and assayed for its substrate preference. Sialidase activity measurements were performed using different enzyme concentrations (0.5-10 μg) at three different pH levels (6.5, 7.0, and 8) (FIGS. 3A, 13). […] Additionally, we tested in vivo sialidase activity in fresh fecal samples. Clarified fecal pellets from mice fed with PSM tend to preferentially release Neu5Gc compared to clarified fecal pellets from mice fed with Soy (FIG. 3D).
Sialidases purified as described above were quantified using SDS-PAGE image analysis with BSA references (Bio-Rad) and absorbance using the Nanophotometer P330 (Implen), with extinction coefficients calculated using ExPASy Translate. […] The samples were kept at −20° C. until derivatization and analyzed by HPLC as described below. […] The DMB-derivatized samples were analyzed on a Dionex Ultra3000 HPLC System using a Phenomenex Gemini 5μ C18 250×4.6-mm HPLC column at room temperature, eluted in isocratic mode with 85% water, 7% methanol, 8% acetonitrile. […]

[2] = Sialidase activity on food sources (Neu5Gc release); settings: 2 μg enzyme, 2 h at 37° C., Tris-HCl pH 7; beef, pork, PSM chow
From the text: Fecal shotgun metagenomes from the Hadza people (Table 4), a genetically distinct indigenous ethnic group that resides in remote Tanzania was reanalyzed. The Hadza are hunter-gatherers and change their diet periodically throughout the year according to food availability. In dry seasons, their diet is enriched in meat and tubers, whereas in wet seasons it consists largely of honey and berries. Raw reads from Hadza metagenomes were mapped to bin13. […] To evaluate the sialidases genes present in the Hadza microbiome, the combined metagenomes were co-assembled and 24 genome bins containing 51 sialidase genes were identified (FIG. 17, Table 5). The binHz19, whose closest relative was Alistipes sp., was equally abundant in microbiomes from both seasons (FIG. 2B, Table 5). […] This difference supports the notion that sialidaseHz136 is capable of metabolizing structurally diverse glycans, a concept that would be of benefit to an individual with seasonal variations in diet. To additionally determine if sialidase26 and sialidaseHz136 can release Neu5Gc from food sources directly, we test their activity on beef, pork, and PSM chow as substrate.
Beef (New York Steak) and pork (breakfast sausage) were purchased at Whole Foods Market and cut in small pieces using sterile blades. PSM chow was powdered using mortar and pestle. […]

[3] = Fluorogenic sialidase assay with 4MU-α-Neu5Gc; settings: for Hydrolysis of 4MU-α-Neu5Gc: compost metagenomic fosmid clones in E. coli, fluorescence λex=365 nm, λem=445 nm; for Preference for Neu5Gc hydrolysis compared to known bacterial exo-sialidases: in vitro, 4MU-α-Neu5Gc versus 4MU-α-Neu5Ac, comparators Au, Cp, Mv, St, Vc sialidases
From the text: To determine if Neu5Gc-specific sialidases are restricted to enteric bacteria, we utilized functional metagenomic screening to identify exo-sialidases with a Neu5Gc specificity in a terrestrial environment. A fosmid library containing ˜40 kb inserts of total environmental DNA isolated from soil from an organic composting facility was constructed in E. coli Lysates from 5,376 clones were screened for hydrolysis of 4MU-α-Neu5Gc. During environmental DNA extraction 100, environmental samples 102 are collected and environmental DNA 104 is extracted. DNA extraction is followed by metagenomics library production 110 where fosmid vectors 112 are ligated with environmental DNA to produce plasmids 114 that are transfected into E. coli cells 116. During functional screening 120, one clone 122 is present per well in a well plate and hits 124 are selected by a means known in the art. Following functional screening 120, hits 132 are sequenced during a sequencing step 130 using any method for sequencing known in the art. Gene prediction and database comparison 140 is used to identify enzyme candidates 142; the enzyme candidates are expressed and characterized 150 in plasmids 152, which are transfected into E. coli and expressed as enzymes 154 for further characterization and/or use.
(§1) Following the enzyme selection process, clones showing activity were tested subsequently and re-tested for their ability to cleave 4MU-α-Neu5Ac. […] The DNA sequence of cloned inserts from C19 and C22 each encoded a single bacterial sialidase gene.
(§2) The compost metagenomic library (theoretically encoding ˜215,000 environmental genes) was differentially screened with fluorogenic 2′-(4-methylumbelliferyl)-α-D-N-glycolylneuraminic acid (4MU-α-Neu5Gc) (Sussex Research, Ottawa, CA) and 2′-(4-methylumbelliferyl)-α-D-N-acetyineuraminic acid 4MU-α-Neu5Ac (Toronto Research Chemicals, Toronto, CA) substrates. In a primary screen, library clones were grown in 384-well plates containing 50 μL LB liquid cultures (10 g tryptone. 5 g yeast extract, 10 g NaCl, 1 g dextrose, 1 g MgCl2-6H2O, 2 mL of 2M NaOH per liter, containing chloramphenicol 12.5 μg/mL and 1× inducing solution (Lucigen Corporation)) overnight at 37° C. Fifty microliters of Y-per lysis buffer (Thermo Fischer Scientific, Waltham, Mass.) containing 40 μg/mL of 4MU-α-Neu5Gc was added to each well. The mixtures were incubated overnight at 37° C. in a static incubator. Fluorescence at λex=365 nm and λem=445 nm was read with a SpectraMax Plus 384 Microplate Reader (Molecular Devices, Sunnyvale, Calif.) at 6 h, 24 h and 48 h. Positive clones were defined as those showing fluorescence greater than 3 standard deviations above the mean background, and each was re-archived in a fresh 384-well plate in sterile 20% (v/v) glycerol. […]

[4] = Fluorogenic sialidase assay with 4MU-α-Neu5Ac; settings: compost metagenomic fosmid clones in E. coli, fluorescence λex=365 nm, λem=445 nm
Description: as §1
as §2, with “Fifty microliters of Y-per lysis buffer (Thermo Fischer Scientific, Waltham, Mass.) containing 40 μg/mL of 4MU-α-Neu5Gc was added to each well. The mixtures were incubated overnight at 37° C. in a static incubator.” left out

| Molecule | Substrate preference, Neu5Gc versus Neu5Ac release [1] | Release of Neu5Gc from food [2] | Hydrolysis of 4MU-α-Neu5Gc [3] | Preference for Neu5Gc hydrolysis compared to known bacterial exo-sialidases [3] | Activity on 4MU-α-Neu5Ac [4] |
| --- | --- | --- | --- | --- | --- |
| sialidase26: Bin13 GH33 sialidase from mouse gut metagenome, SEQ ID NO. 4, PDB 6MRX (protein, Environmental sample, 4, PDB 6MRX) MKKNLFLSIIFSFCVILQAFASDTVFVRETQIPVLIERQDNVLFMLRLNAKESHTLDEVVLNFGKDVNMSDIQSVKLYYSGTEARQNYGKNFFAPVSYISSHTPGKTLAANPSYSINKSQVNNPKRKVALKANQKLFPGINYFWISLQMKPDASLLDKVAAKIAAIKVDNKEALMHTVSPENIVHRVGVGVRHAGDDGSASFRIPGLVTTNKGTLLGVYDVRYNNSADLQEHVDIGLSRSVDGGKTWEKMRLPLAFGETGDLPAAQNGVGDPSILVDTKTNTVWVVAAWTHGMGNQRAWWSSYPGMDMNHTAQLVLSKSTDDGKTWSKPINITEQVKDPSWYFLLQGPGRGITMQDGTLVFPIQFIDSTRVPNAGIMYSKDRGETWKIHNYARTNTTEAQVAEVEPGVLMLNMRDNRGGSRAISTTKDLGKTWTEHSSSRKALQEPVCMASLISVKAKDNVLNKDILLFSNPNTVKGRHHITIKASLDGGVTWLPEHQVMLDEGEGWGYSCLTMIDKETIGILYESSVAHMTFQAVQLRDIIK | preference for Neu5Gc | pronounced sialidase activity by releasing Neu5Gc from all food tested |  |  |  |
| sialidaseHz136: Sialidase from binHz19 of Hadza shotgun metagenome, SEQ ID NO. 6, PDB 6MNJ (protein, Environmental sample, 6, PDB 6MNJ) MMKRTFWLIALSLLSLTLSASDSLRIHNPQIPILLDRMDNVLFLIRVPDAVQGNVLESLTVEFGPDTDLNSIAELRLFYSGTEAVRRQGLRFSPVEYISAHNVWNTRSANPSYSVMQEQASKIGRKVVLHSRQPMVGGINYYWVSVRMNPDASLLTELRARVSEVVVNGKKIPVACDSREVVRRMGYGVRHAGDDHSMAYRIPGLVTTNSGSLIGTYDVRWNSSVDLQERIDIGVSRSTDKGQTWEPMRIAMSFADIDGLPSGQNGVGDPAVLVDEKTGTIWVMAAWTHGMGNGRAWTNSMPGMEPMETPQLMLARSDDDGRTWSEPINITKQVKDPSWCFLLQGPGRGITMRDGTLVFAIQFIDKDRMPHAGIIFSKDHGETWHIHNPARSNTTEAQVAEVEPGVLMLNMRDNRGGARAVMTTRDLGRTWTEHVSHRTTLREPVCMASLIAVPAEKNVLGKDLLLFSNPDTTDGRRDITIKASLDGGVTWPYSLLLDEGDSWGYSCLTMIDSQTVGILYESSVAHITFQAAKLKAIVK | preferential activity for Neu5Gc over Neu5Ac in all tested conditions | pronounced sialidase activity by releasing Neu5Gc from all food tested |  |  |  |
| C22: GH33 exo-sialidase from compost soil metagenomic fosmid clone C22, SEQ ID NO. 8 (protein, Environmental sample) MVIAWMAGVQCTAAALVDLGVTILDISGEPERQVIVDREPGQYLGHVSTVLLEDDKTILAVYPKGHGRGAIVLKRSEDGGRTWSGRLPVPASWATSKETPTIHRVVDARGRRRLLLWSGLYPARRALSDDDGRTWTELEPVGEWGGIVVMGFVEATRQPGHYVAMFHDDGRYFAAQPSTNRSMTLYLTRSSDGGVSWSSPVAVWSNSAVHLCEPGGIWSPDRRRLAVLLRENRRVNNSHIMFSDDEGHTWTTPVEMPLSRAGDRHTLRYTPDGRIVCVFRAVTPVGMRGRSFGQNEDVDTLGVGSPFEGDCVAWVGTWDDLVHNRPGQYYVRLLNNRKGWDTTYPGVEVLPDGTVVVTTYGHWNAGEPPYIRSVRFRLEELDRMAAKASQKP |  |  | significant hydrolysis; also recorded: significant activity | marked preference for Neu5Gc hydrolysis | only minor activity |
| C19: GH33 exo-sialidase from compost soil metagenomic fosmid clone C19, SEQ ID NO. 7 (protein, Environmental sample) MKRTGWLLLLVSGPALCQPPRGYSIPLIDLAAEAWRQTVVDREPGQYLGHPTTVLLEDGRTVLAVYPKGHGRGAIVYKRSRDGGRTWSARLPVPENWATSQETPTIHRVVDPRGRKRLILFSGLYPIRMSVSEDDGETWTPLAPIGNFGGVVAMASVERLRDGRYMALFHDDGRFLRGGGKPDRFVVYKTLSGDGGLTWSEPVPILSHPQAHLCEPGLLRSPDGRRIAILLRENSRKFNSFVSFSDDEGETWSEPRELPGALTGDRHTAVYARDGRLFISFRDTTHESPTRGDWVAWVGRFGDIENGREGQYRVRLMKNHKDLDCCYPGVLRLPDDTILTTTYGHWTPGEPPYIVSIRLRLSELDRRAQGAGR |  |  | significant hydrolysis; also recorded: significant activity | marked preference for Neu5Gc hydrolysis | only minor activity |
